Test results from patent US20260374828.

Biological target: Keap1 Kelch domain, Q14145
Test: other TR-FRET
Settings: modification not given

Sequence of Keap1 Kelch domain, Q14145 (Q14145 whole entry, the tested form may be a part): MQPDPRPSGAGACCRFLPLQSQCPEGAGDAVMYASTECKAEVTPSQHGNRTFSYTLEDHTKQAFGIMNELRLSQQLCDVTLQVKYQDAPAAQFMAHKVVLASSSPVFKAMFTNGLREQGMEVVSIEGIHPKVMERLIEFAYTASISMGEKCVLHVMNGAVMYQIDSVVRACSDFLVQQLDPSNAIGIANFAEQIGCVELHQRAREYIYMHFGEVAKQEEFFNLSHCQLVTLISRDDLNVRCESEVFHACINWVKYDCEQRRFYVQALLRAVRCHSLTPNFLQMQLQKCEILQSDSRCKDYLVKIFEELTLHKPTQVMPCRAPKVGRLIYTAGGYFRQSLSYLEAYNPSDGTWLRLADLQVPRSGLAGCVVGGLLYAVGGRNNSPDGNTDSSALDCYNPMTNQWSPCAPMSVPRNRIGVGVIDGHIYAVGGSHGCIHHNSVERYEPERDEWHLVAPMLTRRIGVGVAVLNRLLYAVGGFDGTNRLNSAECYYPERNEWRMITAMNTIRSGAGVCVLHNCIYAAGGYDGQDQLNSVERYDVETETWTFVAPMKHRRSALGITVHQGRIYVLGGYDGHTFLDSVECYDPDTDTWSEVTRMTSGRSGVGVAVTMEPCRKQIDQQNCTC

Binder | IC50
RDELEPLTGFRRR [Peptide 1-9] | 14.7 nM
DELEPLTGFRRR [Peptide 1-8] | 40.4 nM
RRDELEPLTGFRR [Peptide 1-3] | 38.8 nM
DELEPLTGFRR [Peptide 1-7] | 6.2 nM
